According to the Human Domainome abundance scans (Beltran et al. 2025):
± gives the uncertainty stated by the source.

B1: RUN and FYVE domain-containing protein 1, residues 639 to 698; numbered along this chain, Q96T51 (parent)
chain: WLKDDEATHCRQCEKEFSISRRKHHCRNCGHIFCNTCSSNELALPSYPKPVRVCDSCHTL

Variants of: B1
Test: abundance fitness (aPCA) (normalised: wild type 0, dead -1); higher = more abundant; growth selection in yeast, the domain comes from the species named
Details: Homo sapiens

Variant	abundance fitness
WLKDDEATHCRQCEKEFSISRRKHHCRNLGHIFCNTCSSNELALPSYPKPVRVCDSCHTL [C29L]	-0.875 ± 0.08
WLKDDEATHCRQCEKEFSISRRKHHCRNIGHIFCNTCSSNELALPSYPKPVRVCDSCHTL [C29I]	-1.11 ± 0.11
WLKDDEATHCRQCEKEFSISRRKHHCRNMGHIFCNTCSSNELALPSYPKPVRVCDSCHTL [C29M]	-0.906 ± 0.094
WLKDDEATHCRQCEKEFSISRRKHHCRNGGHIFCNTCSSNELALPSYPKPVRVCDSCHTL [C29G]	-1 ± 0.075
WLKDDEATHCRQCEKEFSISRRKHHCRNKGHIFCNTCSSNELALPSYPKPVRVCDSCHTL [C29K]	-1.11 ± 0.23
WLKDDEATHCRQCEKEFSISRRKHHCRNEGHIFCNTCSSNELALPSYPKPVRVCDSCHTL [C29E]	-0.666 ± 0.068
WLKDDEATHCRQCEKEFSISRRKHHCRNDGHIFCNTCSSNELALPSYPKPVRVCDSCHTL [C29D]	-0.709 ± 0.11
WLKDDEATHCRQCEKEFSISRRKHHCRNHGHIFCNTCSSNELALPSYPKPVRVCDSCHTL [C29H]	-1.25 ± 0.26
WLKDDEATHCRQCEKEFSISRRKHHCRNAGHIFCNTCSSNELALPSYPKPVRVCDSCHTL [C29A]	-1.03 ± 0.091
WLKDDEATHCRQCEKEFSISRRKHHCHNCGHIFCNTCSSNELALPSYPKPVRVCDSCHTL [R27H]	0.316 ± 0.053
WLKDDEATHCRQCEKEFSISRRKHHCGNCGHIFCNTCSSNELALPSYPKPVRVCDSCHTL [R27G]	0.153 ± 0.041
WLKDDEATHCRQCEKEFSISRRKHHCMNCGHIFCNTCSSNELALPSYPKPVRVCDSCHTL [R27M]	0.019 ± 0.051
WLKDDEATHCRQCEKEFSISRRKHHCWNCGHIFCNTCSSNELALPSYPKPVRVCDSCHTL [R27W]	-0.144 ± 0.046
WLKDDEATHCRQCEKEFSISRRKHHCANCGHIFCNTCSSNELALPSYPKPVRVCDSCHTL [R27A]	0.189 ± 0.048
WLKDDEATHCRQCEKEFSISRRKHHCKNCGHIFCNTCSSNELALPSYPKPVRVCDSCHTL [R27K]	0.04 ± 0.082
WLKDDEATHCRQCEKEFSISRRKHHCLNCGHIFCNTCSSNELALPSYPKPVRVCDSCHTL [R27L]	0.069 ± 0.034
WLKDDEATHCRQCEKEFSISRRKHHCENCGHIFCNTCSSNELALPSYPKPVRVCDSCHTL [R27E]	0.085 ± 0.058
WLKDDEATHCRQCEKEFSISRRKHHCQNCGHIFCNTCSSNELALPSYPKPVRVCDSCHTL [R27Q]	0.112 ± 0.054
WLKDDEATHCRQCEKEFSISRRKHHCFNCGHIFCNTCSSNELALPSYPKPVRVCDSCHTL [R27F]	0.176 ± 0.061
WLKDDEATHCRQCEKEFSISRRKHHCDNCGHIFCNTCSSNELALPSYPKPVRVCDSCHTL [R27D]	0.072 ± 0.082
WLKDDEATHCRQCEKEFSISRRKHHCVNCGHIFCNTCSSNELALPSYPKPVRVCDSCHTL [R27V]	-0.262 ± 0.038
WLKDDEATHCRQCEKEFSISRRKHHCINCGHIFCNTCSSNELALPSYPKPVRVCDSCHTL [R27I]	-0.077 ± 0.052
WLKDDEATHCRQCEKEFSISRRKHHCNNCGHIFCNTCSSNELALPSYPKPVRVCDSCHTL [R27N]	0 ± 0.088

Variant	abundance fitness
WLKDDEATHCRQCEKEFSISRRKHHCPNCGHIFCNTCSSNELALPSYPKPVRVCDSCHTL [R27P]	0.219 ± 0.053
WLKDDEATHCRQCEKEFSISRRKHHCTNCGHIFCNTCSSNELALPSYPKPVRVCDSCHTL [R27T]	0.095 ± 0.037
WLKDDEATHCRQCEKEFSISRRKHHCSNCGHIFCNTCSSNELALPSYPKPVRVCDSCHTL [R27S]	-0.003 ± 0.039
WLKDDEATHCRQCEKEFSISRRKHHCCNCGHIFCNTCSSNELALPSYPKPVRVCDSCHTL [R27C]	-0.067 ± 0.053
WLKDDEATHCRQCEKEFSISRRKHHCRFCGHIFCNTCSSNELALPSYPKPVRVCDSCHTL [N28F]	-0.177 ± 0.12
WLKDDEATHCRQCEKEFSISRRKHHCRICGHIFCNTCSSNELALPSYPKPVRVCDSCHTL [N28I]	-0.261 ± 0.065
WLKDDEATHCRQCEKEFSISRRKHHCRLCGHIFCNTCSSNELALPSYPKPVRVCDSCHTL [N28L]	-0.342 ± 0.043
WLKDDEATHCRQCEKEFSISRRKHHCRRCGHIFCNTCSSNELALPSYPKPVRVCDSCHTL [N28R]	-0.176 ± 0.034
WLKDDEATHCRQCEKEFSISRRKHHCRKCGHIFCNTCSSNELALPSYPKPVRVCDSCHTL [N28K]	-0.202 ± 0.066
WLKDDEATHCRQCEKEFSISRRKHHCRACGHIFCNTCSSNELALPSYPKPVRVCDSCHTL [N28A]	-0.046 ± 0.037
WLKDDEATHCRQCEKEFSISRRKHHCRWCGHIFCNTCSSNELALPSYPKPVRVCDSCHTL [N28W]	-0.13 ± 0.043
WLKDDEATHCRQCEKEFSISRRKHHCRHCGHIFCNTCSSNELALPSYPKPVRVCDSCHTL [N28H]	0.05 ± 0.064
WLKDDEATHCRQCEKEFSISRRKHHCRMCGHIFCNTCSSNELALPSYPKPVRVCDSCHTL [N28M]	-0.252 ± 0.05
WLKDDEATHCRQCEKEFSISRRKHHCRGCGHIFCNTCSSNELALPSYPKPVRVCDSCHTL [N28G]	-0.1 ± 0.044
WLKDDEATHCRQCEKEFSISRRKHHCRVCGHIFCNTCSSNELALPSYPKPVRVCDSCHTL [N28V]	-0.285 ± 0.044
WLKDDEATHCRQCEKEFSISRRKHHCRQCGHIFCNTCSSNELALPSYPKPVRVCDSCHTL [N28Q]	-0.147 ± 0.054
WLKDDEATHCRQCEKEFSISRRKHHCRSCGHIFCNTCSSNELALPSYPKPVRVCDSCHTL [N28S]	-0.099 ± 0.038
WLKDDEATHCRQCEKEFSISRRKHHCRDCGHIFCNTCSSNELALPSYPKPVRVCDSCHTL [N28D]	-0.19 ± 0.08
WLKDDEATHCRQCEKEFSISRRKHHCRPCGHIFCNTCSSNELALPSYPKPVRVCDSCHTL [N28P]	-0.244 ± 0.069
WLKDDEATHCRQCEKEFSISRRKHHCRYCGHIFCNTCSSNELALPSYPKPVRVCDSCHTL [N28Y]	-0.283 ± 0.065
WLKDDEATHCRQCEKEFSISRRKHHCRTCGHIFCNTCSSNELALPSYPKPVRVCDSCHTL [N28T]	-0.306 ± 0.059
WLKDDEATHCRQCEKEFSISRRKHHCRCCGHIFCNTCSSNELALPSYPKPVRVCDSCHTL [N28C]	0.058 ± 0.09
